T1: human p22^phox cytoplasmic domain (p22^phoxC) (human)
T1 construct: human p22phox, cytoplasmic domain; source: E. coli BL21 STAR, purified (glutathione Sepharose, PreScission cleavage, Superdex 75)
T1 sequence (P13498 whole entry, looked up): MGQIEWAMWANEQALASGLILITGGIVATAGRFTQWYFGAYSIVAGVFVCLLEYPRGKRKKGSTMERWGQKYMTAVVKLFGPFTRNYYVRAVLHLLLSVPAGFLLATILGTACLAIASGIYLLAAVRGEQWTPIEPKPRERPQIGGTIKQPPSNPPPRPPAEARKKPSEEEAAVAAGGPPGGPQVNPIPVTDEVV

T2: mouse NOXO1 SH3AB–E (tandem SH3 domains plus the C-terminal portion of NOXO1) (mouse, UniProt Q8VCM2 160-349)
T2 construct: mouse NOXO1, tandem SH3 domains plus the C-terminal portion; source: E. coli BL21 STAR, purified (glutathione Sepharose, PreScission cleavage, Superdex 75)
T2 sequence (looked up): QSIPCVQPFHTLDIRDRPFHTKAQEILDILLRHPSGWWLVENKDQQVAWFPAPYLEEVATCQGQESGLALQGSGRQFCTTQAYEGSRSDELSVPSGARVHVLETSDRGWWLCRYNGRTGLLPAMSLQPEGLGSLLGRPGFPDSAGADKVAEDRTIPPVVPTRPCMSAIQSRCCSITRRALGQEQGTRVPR

B1: human NOXO1 SH3AB–E (tandem SH3 domains plus the C-terminal portion of NOXO1) (domain or fragment)
chain: LEAQSLRCLQPFCTQDTRDRPFQAQAQESLDVLLRHPSGWWLVENEDRQTAWFPAPYLEEAAPGQGREGGPSLGSSGPQFCASRAYESSRADELSVPAGARVRVLETSDRGWWLCRYGDRAGLLPAVLLRPEGLGALLSGTGFRGGDDPAGEARGFPEPSQATAPPPTVPTRPSPGAIQSRCCTVTRRALERRPRRQGRPRGCVDSVPHPTTEQ
B2: shorter version of peptideA, which only contains the proline rich region (peptide)
peptide: TAPPPTVPTRPS
notes: also called PeptideA-short; short proline-rich motif-containing version of peptideA; source: synthetic peptide
B3: peptideA (amino acids 319–347 of human NOXO1) (peptide)
peptide: TAPPPTVPTRPSPGAIQSRCCTVTRRALE
notes: also called long version of peptideA; source: synthetic peptide
B4: mouse NOXA1 SH3 domain (domain or fragment, UniProt Q8CJ00 369-428, looked up)
chain: PVLYQVVAQYNYRAQRPEDLDFHQGDTVDVLCEVDEAWLEGHRDGCVGIFPKCFVVPAGA
notes: mouse NOXA1, carboxy-terminal SH3 domain; source: E. coli BL21 STAR, purified (glutathione Sepharose, PreScission cleavage, Superdex 75)
B5: human NOXA1 SH3 domain (domain or fragment, UniProt Q86UR1 399-458, looked up)
chain: PVLYQVVAQHSYSAQGPEDLGFRQGDTVDVLCEVDQAWLEGHCDGRIGIFPKCFVVPAGP
notes: human NOXA1, carboxy-terminal SH3 domain; source: E. coli BL21 STAR, purified (glutathione Sepharose, PreScission cleavage, Superdex 75)
B6: mouse p22^phox cytoplasmic domain (p22^phoxC) (domain or fragment, UniProt Q61462 127-192, looked up)
chain: RGEQWTPIEPKPKERPQVGGTIKQPPTNPPPRPPAEVRKKPSEGEEEAASAGGPQVNPMPVTDEVV
notes: mouse p22phox, cytoplasmic domain; also called murine p22^phox; source: E. coli BL21 STAR, purified (glutathione Sepharose, PreScission cleavage, Superdex 75)

How the values were obtained:
Test in all cases: ITC; MicroCal VP-ITC, 18°C; 150 mM NaCl, 1 mM DTT, 50 mM HEPES pH 7.4; typically 20–40 µM protein in the cell, 200–300 µM ligand injected; single-site binding model; averaged over three to five experiments
Conditions in all cases: both partners purified
[1] = biological target: T1, human p22^phox cytoplasmic domain …
[2] = biological target: B5
[3] = biological target: B4
[4] = biological target: T2, mouse NOXO1 SH3AB–E (tandem SH3 domains …)
[5] = biological target: B1
[6] = biological target: T2, mouse NOXO1 SH3AB–E (tandem SH3 domains …); remark: listed apart in the source

In the case of B1, the Kd [1] is reported as 17.5 µM and the Kd [2] is reported as 7.2 µM.

B2 was tested, and the Kd [2] was > 70 µM.

Work on B3 yielded a Kd [3] of 5.9 µM, a dH [3] of -7.6 ± 0.3 kcal/mol and a Kd [2] of 5.8 µM. The dH [2] was -12.6 ± 0.6 kcal/mol.

Work on B4 yielded a Kd [4] of 2.2 µM and a dH [4] of -10.1 ± 0.8 kcal/mol.

Binder B5 has a dH [5] of -8.6 ± 0.7 kcal/mol.

B6 was tested, and the Kd [6] was 0.78 µM and the dH [6] was -7.1 ± 0.05 kcal/mol.

Reference: article PMC2864300, “Regulation of NOXO1 Activity through Reversible Interactions with p22^phox and NOXA1” (PLoS ONE, 2010)
